The values below come from the DeepSol protein solubility set.

The data set can be described thus: soluble on expression in E. coli; label from the status in PepcDB or PDB records.
In the case of “MAKYFDIDDILIEEEFVPVLFHKTANGVTIDPSAETNCVSLLIPSAKAEQGSKVELPFWLAHELHLRQAVTINLPPCFDQKTRLEVQADAAYVDLRSRCPYFYEFGCKIEPLVTDRTLGILLSTAFKIRYKEALTKVYTAAHITASKYLSFLTKEETNLYEAAHLSMTAFKKWRTGGPRFQRASILGRKRKDSN”, the “soluble on expression in E. coli” value is recorded as “soluble”.
In the case of “MPSEPGKNMIQHAGLGYRRDLAEDFLSLSENSPICFIEAAPENWLKMGGWARKQFDRVAERLPLALHGLSMSLGGQAPLDTDLIDGIKEMMRRYDCTFFSDHLSYCHDGGHLYDLLPLPFTEEMVHHTARRIREVQDRLGCRIAVENTSYYLHSPLAEMNEVEFLNAVAREADCGIHLDVNNIYVNAVNHGLLSPEAFLENVDAERVCYIHIAGHDVETPELLIDTHGAAVLPTVWDLLELAYAKLPTIPPTLLERDFNFPPFSELEAEVAKIADYQTRAGKECRRAA”, the “soluble on expression in E. coli” value is on record as “not soluble”.
Regarding “MGSDKIHHHHHHMSEAPHLTFDLDTPGVSTGHLVVPKGADCEALSLPVFSCNRGEGPSLLITGGNHGNELQGPILARRLVKWLPEAQRCGRIIIVPEINPLAVQAWTRNTPIDGKNLNRVFPGRSDGSVSERIADAISRLLLPVVDTVLDLHSFGPTWDCAPSIISHPIADIDQMTKTVSISKAFKLPVTLLWEHNETDGMFDTLVHRQGKTFICTEFGGGVVSAEALTIYEAGVRNGLIALGLVKGKAEYPTFRQQKTGQTLETTSSDQLKSPSPGIFEPRCSVMDEVEQGDVVGVLHPMGSLSAASIDIRAQSKSTVFAIRSAMYVQGNEEVAILARPLAR”, the “soluble on expression in E. coli” value is given as “not soluble”.
The entry for “MGNICIGGPRMSQQVYSPERADTPQRNALREQTEADIEQNSESMRLQQKIDDLKPYVSNATGPMKAYGQAAMDRASGKKTYVSFAELDAEHLDAMVDVENQRNPDLNLRYFKHHKEFIQALESDGPSSFRAIYPLTKPRTGQAAKHHVMADVRLTPCEPPSIVITEPGVIVGKRNKQLHRHNQTLEDLSESGVQLSQVAIIETQAQKTPDDCVMYCLNYAIKAHKNADKFDDIHHGLQRGTFVNRINGRRVQDADHCGHF” is “not soluble”; for “MNPDLRKERASATFNPELITHILDGSPENTRRRREIENLILNDPDFQHEDYNFLTRSQRYEVAVKKSATMVKKMREYGISDPEEIMWFKNSVHRGHPEPLDLHLGMFLPTLLHQATAEQQERFFMPAWNLEITGTYAQTEMGHGTHLRGLETTATYDPKTQEFILNSPTVTSIKWWPGGLGKTSNHAIVLAQLITQGECYGLHAFVVPIREIGTHKPLPGITVGDIGPKFGYEEMDNGYLKMDNYRIPRENMLMKYAQVKPDGTYVKPLSNKLTYGTMVFVRSFLVGNAAQSLSKACTIAIRYSAVRRQSEIKQSEPEPQILDFQTQQYKLFPLLATAYAFHFVGRYMKETYLRINESIGQGDLSELPELHALTAGLKAFTTWTANAGIEECRMACGGHGYSHSSGIPNIYVTFTPACTFEGENTVMMLQTARFLMKIYDQVRSGKLVGGMVSYLNDLPSQRIQPQQVAVWPTMVDINSLEGLTEAYKLRAARLVEIAAKNLQTHVSHRKSKEVAWNLTSVDLVRASEAHCHYVVVKVFSDKLPKIQDKAVQAVLRNLCLLYSLYGISQKGGDFLEGSIITGAQLSQVNARILELLTLIRPNAVALVDAFDFKDMTLGSVLGRYDGNVYENLFEWAKKSPLNKTEVHESYHKHLKPLQSKL” it is “soluble”; for “PEYQANVQILVNRKHSSAGADLTGQQADVQMITTYKELITKPVVLKPARQTLMAETDIRRSLESLKQTVSVTSTANSQVFSIGVRDKNAKASAMIANQIAATFKDQVQHIIKVNNVTIVAPAETPDQSVAPKK” it is “not soluble”.
The result for “MEIERRLVLEVVRVTEQAALAASRFAGKGDKEAVDEAGTQAMRRVLNELPIRGTVVIGEGEMDEAPMLYIGEVLGQGGLEVDIAVDPVEGTTTVAKGLPNAVTVIALSEKGGLFHAPDMYMEKLIVPPSAVGLVDLTWPVSVNLRALALALQRSVEDLVVVVLEPPRHERLIREIRKAGAPVKLISDGDVIAALAAAIRGTGVHAVMGIGGAPEGVLTAAALKCLGGEIQARFVPQNEEERERLKAMGGDEHRIYKTEDLAPGKEIVFAATGITDGDILEGVRFFGGGARTHSIVMGHATRVVRFIDSIHLFETGARVTIRV” reads “soluble”; that for “MGADGGTIPKRCELVKERKKKEKLDKHVKNATKWRNCQLTQLPLKRPVIACRFGKLYNKEDVINSILSKTISKSASASHIKGPKDFVELKLTLNKDFKRGDVKGDDYNDVNQTEFICPITNVPMNGIQSFLVNWQCGCVYSEKAQQEVKSSNCHVCGGPYDATKMVILNPEPEQLELYKLKWEAEKAEKAAAKKDKAKKTAEKMEAAASLAAGSGGEASSVAPGPSGSGVGKHVDLKKKLEIAKLTGGSTSEKKAEKRKANTDIQSDPTTSDTYKKLFTTCEAAKNKTEGHWVTYNPLYY”, “soluble”.
Regarding “MGSDKIHHHHHHMQFLDDSLHPENQDKVVITVAPYGPEWMPQDFPEDIPVTMEEQVQKAVDCYNAGATVLHLHVRELDGKGSKRLSKFNELIAGVRAAVPDMIIQVGGSISFAPEDDGQAAKWLSDDTRHMLADLDPKPDQVTVAINTTQMNIMELLYPEYLEGTSLSHPAYVEAYREMTVPAGPGWVEEHLRRLSNAGIQPHFQLTGIHAMETLERMVRAGKYKGPLNLTWIGIGGGFDGPNPFNFVNFVHRAPDGCTLTAESLLKNVLPFNMMAMAMGLHPRCGIEDTIIDQHGNRMTSVQQIEQCVRVARELGREIASGKEAREIYRIGTWYDSAEETLEAHGMAPNRKAGQKNLPLRKAA”, the “soluble on expression in E. coli” value was “not soluble”.
The entry for “MNTVLIPPGPGGYGKGLWLPVGSGKKVLSLTGREIHPVAIEIGALTQSEVVNGFADIPPDNDILCVVINCAGSLRCGLYPQKGIPTINVLPTWRAGPLAQFITEENYVSGVTMEQLVLVDTAEAPDGKPETTQEPAPRVISTPPSPRGAEKLVRMVEQTGTAVGHVIALLFAASREAVDVSLRN” is “not soluble”; for “MSDEKSTTPTAQLDAPADGNMNDLTSLIQGVLQQTQDRFQHMSDQIIRRIDDMTTRIDDLEKNINDLLQSNQVEHPPSAQ” it is “not soluble”.
Turning to “MGSDKIHHHHHHMKVLLINGSPNQYGCTYTALNEITKVLSKHDIKTEILYLGKETIPGCISCASCFETGKCIRNDKVNELIEDLDNIDGIIIGSPVYFSSATGQLTSFLDRLFFIAGSRMATKLGASVVSCRRGGASATFDQLNKYFSISNMPIVSSQYWNQVHGFTPEDVMKDEEGLQTMRTLGENMAWLLKCISAGKKAGIKEPQYEETIMTNFIK”, the “soluble on expression in E. coli” value is listed as “not soluble”.
As for “MGSDKIHHHHHHMSRNRPAPSGDQFDLFLPYVADMPMRDQREMMERPFFSLAKSKRVKPIDYTSPDGKLWVHVSGNPDYGMATIWDADILIYCASVLADMARRGVNDVPRKLHLMPYDLLRAIGRPTTGRAYELLGQALDRLVATTIKTNIRAENRREATFSWLDGWTQLVDEKTERSRGMTIELSNWFWEGVMMKGGVLSIDRAYFDITGGRERWLYKVARKHAGGAGEEGFAISMPVLFEKSGAEGEYRRFKFEILKLAEKNALPGYGLSVETARGGEPMLRMRRVDGKDGADRALPEAGRQGAEARTVASTAPDVSPGKHSSGASETVDVRALIRKTVAGVSDAATRGFMTDETIRHLRETCPGWDLHALHAEFESWVNGDSARLPANWQKAFIGWVKRHHEKNGHALRR”, the “soluble on expression in E. coli” value is recorded as “not soluble”.
The entry for “MSLAQGRQVIGLDIGTTSTIAILVRLPDTVVAVASRPTTLSSPHPGWAEEDPAQWWDNARAVLAELKTTAGESDWRPGGICVTGMLPAVVLLDDRGAVLRPSIQQSDGRCGDEVAELRAEVDSEAFLARTGNGVTQQLVTAKLRWIERHEPAVFGAIATVCGSYDYINMLLTGERVVDRNWALEGGFIDLASGTVEADLVALAHIPPSAVPPAHPTHRVLGAVTAEAAALTGLPTGLPVYGGAADHIASALAAGITRPGDVLLKFGGAGDIIVASATAKSDPRLYLDYHLVPGLYAPNGCMAATGSALNWLAKLLAPEAGEAAHAQLDALAAEVPAGADGLVCLPYFLGEKTPIHDPFASGTFTGLSLSHTRGHLWRALLEAVALAFRHHVAVLDDIGHAPQRFFASDGGTRSRVWMGIMADVLQRPVQLLANPLGSAVGAAWVAAIGGGDDLGWDDVTALVRTGEKITPDPAKAEVYDRLYRDFSALYATLHPFFHRSREGHHHHHH” is “soluble”; for “MTLVSQIEAILFVVGEEGIGLEELAYLLEKSTAKTYEELTKLKEHYASDNKSALNILEVGNHFVLTTKKKYASLLKKYAQSPMSNALSQAALETLSIIAYKQPISRIEIDEIRGVQTSGSIQKLVARQLIEEKGRVDGPGRAILYGTTKYFMDYFGLKSLDELPDIQQMEDELEEELPMDLFFDRYQETNPMSETTEGEEA” it is “not soluble”.
The result for “MPLSYSSPSSSEERSDDPSKYDGDFGVPQICFCGKQLELVERLIGDQKKTFLKCPMSGQDDNYHVDKGWDLAVHEQCFCIDKRFGEHRELIQNAFKFGGDSNRLQINQIHAEIEDLKHRLDKKDAEIARLMDALGKK” reads “not soluble”; that for “MSNRVPTNILTGFLGVGKTTTILNLLKNKPENENWAVLVNEFGEIGIDGALMTDQGALIKEVPGGCMCCTAGVPMSVGITALLRQKPDRLLIEPTGLGHPKQVIATLTSEQYLPYVDLKATIALVDPRNLSDEKYTSNQNFVDQLDSADVVIGSKVDLCSSHDIDVFNDWVTDQTPAKVFSKLIHNGELPIEVLDIERVHGSASSHIETHHHEHAHQEPQFQLPPGEAFIRKENKGQGYFSCGWLFGAEYKFDFDKLFSMLSDLTAERVKAVVNTNQGCYAFNVANRVVSVNEISLEGFESRLEVIDSQLLPWDELEQILLQLAGVEGLEHHHHHH”, “soluble”; that for “MNRSDKWQQRVAQVAYRFNQQYQNQSLELPAEVQEMPIYREWISGILAGKIASPFWEMAQPQKNQHCLDIGCGVSFLIYPWRDWQAFFYGQDVSNVARDTLNSRGSQLNSKLFKGVELGAAHQLKYTLSYFDLAIATGFSCYFPLEYWTSVLQAVKRVLKPDGHFVFDILNAAHPQAEDWAVLETYLGAEVFLEPVTEWEKIINAAGAKVVGRQPGEFFDLYKLRLEHHHHHH”, “not soluble”.
The result for “MQLRGEVTPHIGRHAFAVLAILKGMLLETLQKVFGHKSITYVLRIHSLVRRRRSNLFLEVAHLYDQRADQLSQLLIRACFNNCQFHTKILFKILNMRQSNAHPISFPNR” reads “not soluble”.
In the case of “MSLNRLSIPYSNKSLDYYFFVIQEASVKRAVLARSGEFQATNANFDNTRQLEQWQSLLLSRPSAIISDPIDSQAIVSAIRRYNREKIPVGIIDTPADGGDVAITVSFDNFQGGVMAAEEIVNRLITRYGRPKGTVLNCYGALASVAWRLRKEGMDSVFAKYPGITYLARPTDGQLEKMLSVTLSTLSEYPDLDAVHAPSDSPSRGIVTALQQKGRWKKIGEAGHVIFVNIDGEPIALKWIQDGYMDACISQDPVAYGEIAVDMIVKHALKGEAVPLGTYQDKKYFWESGEGHHHHHH”, the “soluble on expression in E. coli” value was “not soluble”.
The entry for “MWQKSALTTVSISLPQQAVYSGMRYEVNISAAKCDGTGVTFGTINNCTITLSLPAGASIITRHFSADL” is “not soluble”; for “MNSFYSQEELKKIGFLSVGKNVLISKKASIYNPGVISVGNNVRIDDFCILSGKVTIGSYSHIAAYTALYGGEVGIEMYDFANISSRTIVYAAIDDFSGNALMGPTIPNQYKNVKTGKVILKKHVIIGAHSIIFPNVVIGEGVAVGAMSMVKESLDDWYIYVGVPVRKIKARKRKIVELENEFLKSMNSLEHHHHHH” it is “not soluble”.
